Results taken from patent US20180362596.

Biological target: human plasmin (UniProt P00747)
Sequence (P00747 97-810): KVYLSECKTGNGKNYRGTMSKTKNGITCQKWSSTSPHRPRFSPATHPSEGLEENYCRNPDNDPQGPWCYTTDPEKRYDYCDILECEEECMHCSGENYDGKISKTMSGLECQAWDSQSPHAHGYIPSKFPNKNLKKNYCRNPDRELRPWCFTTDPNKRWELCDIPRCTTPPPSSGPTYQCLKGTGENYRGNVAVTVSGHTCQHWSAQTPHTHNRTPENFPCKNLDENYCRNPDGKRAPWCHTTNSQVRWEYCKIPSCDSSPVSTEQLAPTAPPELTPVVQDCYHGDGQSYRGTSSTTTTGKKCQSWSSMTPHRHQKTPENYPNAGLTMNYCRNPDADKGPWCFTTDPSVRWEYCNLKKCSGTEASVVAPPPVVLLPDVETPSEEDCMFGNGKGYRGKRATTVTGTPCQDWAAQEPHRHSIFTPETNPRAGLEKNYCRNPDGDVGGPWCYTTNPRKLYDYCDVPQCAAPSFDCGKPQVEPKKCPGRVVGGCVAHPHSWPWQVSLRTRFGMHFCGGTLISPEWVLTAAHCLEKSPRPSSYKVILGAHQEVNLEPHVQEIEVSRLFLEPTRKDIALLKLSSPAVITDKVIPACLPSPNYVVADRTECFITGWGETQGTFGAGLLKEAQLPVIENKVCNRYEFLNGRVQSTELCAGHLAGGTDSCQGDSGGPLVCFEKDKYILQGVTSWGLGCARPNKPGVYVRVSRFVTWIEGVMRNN

Substance: clot specific streptokinase (CSSK), FBD(4,5)-SK-FBD(4,5), expressed in E. coli
- lag in plasminogen activation activity with added plasmin: there was a progressive decrease in the lag in activity in the presence of increasing amounts of plasmin added to the reaction

Substance: clot specific streptokinase (CSSK), FBD(4,5)-SK-FBD(4,5), expressed in Pichia pastoris (pPIC9K-alpha modified CSSK/GS115), glycosylated
- lag in plasminogen activation activity with added plasmin: there was a progressive decrease in the lag in activity in the presence of increasing amounts of plasmin added to the reaction
